Test results published in patent US20190002567A1 (LABORATOIRE FRANCAIS DU FRACTIONNEMENT ET DES …, published 2019).

Experiments:
[1] = target: T1, human CD303 antigen (C-type lectin domain family 4 member C) (human, UniProt Q8WTT0 1-213); experiment: cell-based or functional assay
T1 sequence: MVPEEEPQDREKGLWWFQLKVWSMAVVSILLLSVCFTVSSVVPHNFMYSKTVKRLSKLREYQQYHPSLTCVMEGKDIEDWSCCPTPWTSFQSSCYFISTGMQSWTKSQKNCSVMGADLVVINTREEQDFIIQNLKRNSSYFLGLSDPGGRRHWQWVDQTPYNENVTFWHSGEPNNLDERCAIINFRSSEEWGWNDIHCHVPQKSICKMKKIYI

[2] = target: T2, FcγRIIIa (CD16a) (UniProt P08637 17-254, limits assumed); experiment: competition with 3G8-PE for CD16 on NK cells, flow cytometry
T2 construct: whole, on cells; also called FcvRIIIa
Description: After washing, the binding of 3G8-PE to CD16 expressed by the NK cells was evaluated by flow cytometry. Mean fluorescence intensity (MFI) values are expressed as a percentage, 100% being the value obtained with the 3G8-PE antibody alone, and 0% the value obtained in the absence of 3G8-PE.

T2 sequence (P08637 17-254 limits assumed): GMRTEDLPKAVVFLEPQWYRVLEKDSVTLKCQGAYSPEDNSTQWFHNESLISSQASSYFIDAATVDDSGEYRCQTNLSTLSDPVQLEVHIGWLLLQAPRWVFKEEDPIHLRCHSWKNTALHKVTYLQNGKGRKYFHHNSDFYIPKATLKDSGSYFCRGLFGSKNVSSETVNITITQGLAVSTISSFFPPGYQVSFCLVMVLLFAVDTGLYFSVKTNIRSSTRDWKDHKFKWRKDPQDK

| Binder | ADCC EC50 (ng/mL) on Fc Gamma chain-CD303 Jurkat target cells [1] | ADCC Emax (% lysis) on Fc Gamma chain-CD303 Jurkat target cells [1] | IC50 [2] |
| --- | --- | --- | --- |
| chimeric antibody 122A2 (antibody, human IgG1, kappa, Family 1; also called Ch; 122A2 mAb; Ch122A2 mAb) heavy: not shown light: DIQMTQTTSSLSASLGDRVTISCRASQDISNYLNWYQQKPDGTVKLLIYYTSRLHSGVPSRFSGSGSGTDYSLTISNLDQEDIATYFCQQGNTLPWTFGGGTKLEIKRTVAAPSVFIFPPSDEQLKSGTASVVCLLNNFYPREAKVQWKVDNALQSGNSQESVTEQDSKDSTYSLSSTLTLSKADYEKHKVYACEVTHQGLSSPVTKSFNRGEC | 0.159 ng/mL | 42.4 % lysis | 40.4 mg/L |
| chimeric antibody 104E10 (antibody, human IgG1, kappa, Family 2) heavy: not shown light: QIVLTQSPAIMSASPGEKVTMTCSASSSVIYMHWFQQKPGTSPKLWIYSTSNLASGVPARFSGSGSGTSYSLTISRMEAEDAATYYCQQRRSYPYTFGGGTKLEIKRTVAAPSVFIFPPSDEQLKSGTASVVCLLNNFYPREAKVQWKVDNALQSGNSQESVTEQDSKDSTYSLSSTLTLSKADYEKHKVYACEVTHQGLSSPVTKSFNRGEC | 8.28 ng/mL | 40.5 % lysis | 18.1 mg/L |
| chimeric antibody 114D11 (antibody, human IgG1, kappa, Family 2) heavy: not shown light: QIVLTQSPAIMSASPGEKVTITCSASSSVFYMHWFQQKPGTSPKLWIYSTSNLASGVPARFSGSGSGTSYSLTISRMEAEDAATYYCQQRRSYPYTFGGGTKLEIKRTVAAPSVFIFPPSDEQLKSGTASVVCLLNNFYPREAKVQWKVDNALQSGNSQESVTEQDSKDSTYSLSSTLTLSKADYEKHKVYACEVTHQGLSSPVTKSFNRGEC | 3.61 ng/mL | 37.4 % lysis | 45 mg/L |
| chimeric antibody 102E9 (antibody, human IgG1, kappa, Family 2; the text gives the same values for 102E9) heavy: not shown light: QIVLTQSPAIMSASPGEKVTITCSASSSVIYIHWFQQKPGTSPKLWIYSTSYLASGVPARFSGSGSGTSYSLTISRMEAEDAATYYCQQRRSYPFTFGGGTKLEIKRTVAAPSVFIFPPSDEQLKSGTASVVCLLNNFYPREAKVQWKVDNALQSGNSQESVTEQDSKDSTYSLSSTLTLSKADYEKHKVYACEVTHQGLSSPVTKSFNRGEC | 3.42 ng/mL | 38.9 % lysis | 37 mg/L |
| chimeric antibody 104C12 (antibody, human IgG1, kappa, Family 1) heavy: not shown light: DLQMTQTPSSLSASLGDRVTISCRASQDINNYLSWYQEKPDGTFKLLIYYTSRLHSGVPSRFSGSGSGTDYSLTVRNLEQEDIGTYFCQQGKTLPWTFGGGTKLEIRRTVAAPSVFIFPPSDEQLKSGTASVVCLLNNFYPREAKVQWKVDNALQSGNSQESVTEQDSKDSTYSLSSTLTLSKADYEKHKVYACEVTHQGLSSPVTKSFNRGEC | 0.214 ng/mL | 41.8 % lysis | 26.8 mg/L |
